Measurements as given in patent US20140212425A1.

Key:
[1] = biological target: CD20 on cells (Daudi cells, B cells in PBMCs) (human) (UniProt P11836); assay: cell-based or functional assay
[2] = biological target: Soluble single-chain FcRn (extracellular domain of the human FcRn heavy chain fused with β2-microglobulin via a flexible peptide linker) (human) (UniProt P55899); assay: SPR (BIACORE X), scFcRn amine-coupled to CM5 chip, antibody 25-400 nM as analyte, pH 6.0, two-state reaction model; Run 2
Sequence of Soluble single-chain FcRn (extracellular domain of the human FcRn heavy chain fused with β2-microglobulin via a flexible peptide linker) (human) (P55899 24-297 limits assumed, chain 1 of 2): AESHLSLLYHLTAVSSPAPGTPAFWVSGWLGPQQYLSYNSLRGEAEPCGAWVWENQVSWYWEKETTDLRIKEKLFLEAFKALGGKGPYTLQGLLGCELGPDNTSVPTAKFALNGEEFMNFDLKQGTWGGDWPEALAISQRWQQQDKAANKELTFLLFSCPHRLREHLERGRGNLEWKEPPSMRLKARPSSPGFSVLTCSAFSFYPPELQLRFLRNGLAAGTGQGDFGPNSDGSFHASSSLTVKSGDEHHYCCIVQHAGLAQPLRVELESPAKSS
Sequence of Soluble single-chain FcRn (extracellular domain of the human FcRn heavy chain fused with β2-microglobulin via a flexible peptide linker) (human) (P61769 21-119 limits assumed, chain 2 of 2, further chain): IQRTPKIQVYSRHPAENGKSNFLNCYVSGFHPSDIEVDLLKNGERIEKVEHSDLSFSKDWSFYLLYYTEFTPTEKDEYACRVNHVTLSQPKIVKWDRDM

[3] = biological target: Soluble single-chain FcRn (extracellular domain of the human FcRn heavy chain fused with β2-microglobulin via a flexible peptide linker) (human) (UniProt P55899); assay: SPR (BIACORE X), scFcRn amine-coupled to CM5 chip, antibody 25-400 nM as analyte, pH 6.0, two-state reaction model; Run 1
[4] = biological target: Soluble single-chain FcRn (extracellular domain of the human FcRn heavy chain fused with β2-microglobulin via a flexible peptide linker) (human) (UniProt P55899); assay: SPR (BIACORE X), scFcRn amine-coupled to CM5 chip, antibody 25-400 nM as analyte, pH 6.0, two-state reaction model; Run 3
[5] = biological target: Soluble single-chain FcRn (extracellular domain of the human FcRn heavy chain fused with β2-microglobulin via a flexible peptide linker) (human) (UniProt P55899); assay: SPR (BIACORE X), scFcRn on CM5 chip, pH 6.0, two-state reaction model; mean of 3 runs, S.D. 2.72 × 10^4
[6] = biological target: Soluble single-chain FcRn (extracellular domain of the human FcRn heavy chain fused with β2-microglobulin via a flexible peptide linker) (human) (UniProt P55899); assay: SPR, scFcRn immobilised, pH 6.0
[7] = biological target: Soluble single-chain FcRn (extracellular domain of the human FcRn heavy chain fused with β2-microglobulin via a flexible peptide linker) (human) (UniProt P55899); assay: SPR (BIACORE X), scFcRn on CM5 chip, pH 6.0, two-state reaction model; mean of 3 runs, S.D. 0.0024
[8] = biological target: Soluble single-chain FcRn (extracellular domain of the human FcRn heavy chain fused with β2-microglobulin via a flexible peptide linker) (human) (UniProt P55899); assay: SPR (BIACORE X), scFcRn on CM5 chip, pH 6.0, two-state reaction model; mean of 3 runs, S.D. 21.5
[9] = biological target: Soluble single-chain FcRn (extracellular domain of the human FcRn heavy chain fused with β2-microglobulin via a flexible peptide linker) (human) (UniProt P55899); assay: SPR (BIACORE X), scFcRn on CM5 chip, pH 6.0, two-state reaction model; mean of 3 runs, S.D. 1.5
[10] = biological target: CD22 on cells (B cells in PBMCs, Daudi, D1-1 cells) (human) (UniProt P20273); assay: cell-based or functional assay

Sequence of CD20 on cells (Daudi cells, B cells in PBMCs) (human) (P11836 whole entry, the tested form may be a part): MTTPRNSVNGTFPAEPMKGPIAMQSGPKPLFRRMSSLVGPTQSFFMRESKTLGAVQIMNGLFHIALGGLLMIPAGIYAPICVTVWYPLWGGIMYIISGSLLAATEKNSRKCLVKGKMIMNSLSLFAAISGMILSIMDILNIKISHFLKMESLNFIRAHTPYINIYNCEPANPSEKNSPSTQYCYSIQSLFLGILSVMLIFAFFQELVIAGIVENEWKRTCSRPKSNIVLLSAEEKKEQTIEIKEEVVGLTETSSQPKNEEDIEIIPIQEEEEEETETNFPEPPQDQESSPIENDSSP

**Q.** How did the cytotoxicity in Daudi cells, EC50 (MTS assay, 3 days) [1] turn out when “20*-2b (Ck-AD2-IgG-veltuzumab conjugated with IFNα2b-DDD2) (from UniProt P01563 24-188)” was run?
**A.** Its cytotoxicity in Daudi cells, EC50 (MTS assay, 3 days) is 200 nM.

**Q.** How did the cytotoxicity in Daudi cells, EC50 (MTS assay, 3 days) [1] turn out when “20-2b (CH3-AD2-IgG-veltuzumab conjugated with IFNα2b-DDD2) (from UniProt P01563 24-188)” was run?
**A.** The cytotoxicity in Daudi cells, EC50 (MTS assay, 3 days) was 200 nM.

**Q.** Which Kd [2] does the source give for “22*-(20)-(20), anti-CD22/CD20 bispecific hexavalent antibody (Ck-AD2-IgG-epratuzumab conjugated with CH1-DDD2-Fab-veltuzumab) (bispecific antibody)” here?
**A.** Its Kd is 179 nM.

**Q.** And the koff [2]?
**A.** Its koff is 0.0404 s⁻¹.

**Q.** What about the kon [2] of the same molecule?
**A.** The kon was 226000 M⁻¹ s⁻¹.

**Q.** What about the Kd [3] of the same molecule?
**A.** Its Kd is 141 nM.

**Q.** What about the koff [3] of the same molecule?
**A.** The koff was 0.0395 s⁻¹.

**Q.** What about the kon [3] of the same molecule?
**A.** The kon was 280000 M⁻¹ s⁻¹.

**Q.** And the Kd [4]?
**A.** Its Kd is 178 nM.

**Q.** What about the koff [4] of the same molecule?
**A.** The koff was 0.0441 s⁻¹.

**Q.** What about the kon [4] of the same molecule?
**A.** The kon was 248000 M⁻¹ s⁻¹.

**Q.** What about the kon [5] of the same molecule?
**A.** Its kon is 251000 M⁻¹ s⁻¹.

**Q.** And the Kd [6]?
**A.** Its Kd is 155 nM.

**Q.** And the fold stronger binding affinity than 22-(20)-(20) [6]?
**A.** The fold stronger binding affinity than 22-(20)-(20) was 2 fold.

**Q.** And the koff [7]?
**A.** Its koff is 0.0413 s⁻¹.

**Q.** What about the Kd [8] of the same molecule?
**A.** Its Kd is 166 nM.

**Q.** Which Kd [2] does the source give for “22-(20)-(20), Fc-based anti-CD22/CD20 bispecific hexavalent antibody (CH3-AD2-IgG-epratuzumab conjugated with CH1-DDD2-Fab-veltuzumab) (bispecific antibody)” here?
**A.** The Kd was 267 nM.

**Q.** What about the Kd [4] of the same molecule?
**A.** Its Kd is 352 nM.

**Q.** How did the Kd [9] turn out when “Epratuzumab (humanized anti-CD22 IgG1κ) (antibody)” was run?
**A.** The Kd was 16.3 nM.

**Q.** And the Kd [2]?
**A.** Its Kd is 17.9 nM.

**Q.** What about the Kd [3] of the same molecule?
**A.** The Kd was 15 nM.

**Q.** What about the Kd [4] of the same molecule?
**A.** Its Kd is 15.8 nM.

B1: F(ab′)2 fragment of epratuzumab (protein, INN chains, looked up)
VH: QVQLVQSGAEVKKPGSSVKVSCKASGYTFTSYWLHWVRQAPGQGLEWIGYINPRNDYTEYNQNFKDKATITADESTNTAYMELSSLRSEDTAFYFCARRDITTFYWGQGTTVTVSS
VL: DIQLTQSPSSLSASVGDRVTMSCKSSQSVLYSANHKNYLAWYQQKPGKAPKLLIYWASTRESGVPSRFSGSGSGTDFTFTISSLQPEDIATYYCHQYLSSWTFGGGTKLEIK
modifications: F(ab')2
**Q.** With B1 as the molecule, how does the CD22 level on the surface of B cells in PBMCs (% of isotype control MFI), 10 µg/mL [10] read?
**A.** The CD22 level on the surface of B cells in PBMCs (% of isotype control MFI), 10 µg/mL was 45 % control.
